Assay [1] has as its target T1, human CDH6 expressed on cells (human, UniProt P55285 54-790).
T1 sequence: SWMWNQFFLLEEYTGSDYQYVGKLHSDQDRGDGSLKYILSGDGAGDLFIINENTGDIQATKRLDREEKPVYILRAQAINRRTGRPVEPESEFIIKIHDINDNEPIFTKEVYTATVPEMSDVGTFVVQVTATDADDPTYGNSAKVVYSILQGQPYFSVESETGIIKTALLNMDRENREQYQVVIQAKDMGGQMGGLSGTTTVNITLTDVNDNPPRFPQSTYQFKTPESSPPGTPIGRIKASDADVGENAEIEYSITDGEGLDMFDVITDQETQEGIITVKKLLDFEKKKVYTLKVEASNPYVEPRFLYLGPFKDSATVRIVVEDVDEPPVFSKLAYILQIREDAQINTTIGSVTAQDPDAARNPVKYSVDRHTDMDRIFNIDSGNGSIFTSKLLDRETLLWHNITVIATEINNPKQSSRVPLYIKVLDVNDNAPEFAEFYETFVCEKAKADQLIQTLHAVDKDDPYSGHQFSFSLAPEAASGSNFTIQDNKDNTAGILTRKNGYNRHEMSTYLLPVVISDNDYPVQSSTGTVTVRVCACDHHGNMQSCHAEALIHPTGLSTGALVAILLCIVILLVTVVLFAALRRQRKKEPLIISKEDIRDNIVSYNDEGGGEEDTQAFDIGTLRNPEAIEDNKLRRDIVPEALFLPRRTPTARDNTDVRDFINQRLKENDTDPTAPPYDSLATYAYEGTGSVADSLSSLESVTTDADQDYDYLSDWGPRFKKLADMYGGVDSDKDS
Description: FACS histogram on OVCAR8-CDH6+ cells.

The target of assay [2] is T1, human CDH6 expressed on cells. Description: FACS histogram on OVCAR3 cells.
In assay [3] the target is T2, CDH6-N573A (human, UniProt P55285 54-615).
T2 sequence: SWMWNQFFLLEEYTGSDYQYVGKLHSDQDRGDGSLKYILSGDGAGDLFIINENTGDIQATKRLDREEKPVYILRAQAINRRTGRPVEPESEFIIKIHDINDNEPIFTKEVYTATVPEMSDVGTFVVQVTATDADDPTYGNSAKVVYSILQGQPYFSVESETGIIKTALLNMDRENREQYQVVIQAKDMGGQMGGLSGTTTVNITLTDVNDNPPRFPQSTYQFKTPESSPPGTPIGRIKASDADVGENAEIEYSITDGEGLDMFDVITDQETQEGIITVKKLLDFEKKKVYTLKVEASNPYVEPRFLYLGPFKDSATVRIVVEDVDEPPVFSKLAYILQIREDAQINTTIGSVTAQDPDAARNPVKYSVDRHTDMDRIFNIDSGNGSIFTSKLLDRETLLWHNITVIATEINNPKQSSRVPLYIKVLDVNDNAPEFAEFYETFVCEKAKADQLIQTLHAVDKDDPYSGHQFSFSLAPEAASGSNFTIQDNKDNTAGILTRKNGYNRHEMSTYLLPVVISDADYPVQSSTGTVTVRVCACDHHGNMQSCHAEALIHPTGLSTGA
Description: ELISA on coated CDH6-N573A, O.D.

Assay [4] has as its target T3, CDH6 wt (human, UniProt P55285 54-615, limits assumed).
T3 sequence: T2 sequence with A520N
The assay is described as follows: ELISA on coated CDH6-wt, O.D.

In assay [5] the target is T2, CDH6-N573A. The assay is described as follows: ELISA on coated CDH6-N573A, O.D. The source holds these as a separate data set. A general note: In an ELISA, binding on a coated surface is turned into a signal by an enzyme label.
Assay [6] concerns the target T4, CDH6-Y575A (human, UniProt P55285 54-615).
T4 sequence: T2 sequence with A520N, Y522A
The assay is described as follows: ELISA on coated CDH6-Y575A, O.D.

Assay [7] addresses T5, CDH6-D574A (human, UniProt P55285 54-615).
T5 sequence: T2 sequence with A520N, D521A
The assay is described as follows: ELISA on coated CDH6-D574A, O.D.

Assay [8] has as its target T3, CDH6 wt. Description: ELISA on coated CDH6-wt, O.D. This is another data set of the same source.
The target in assay [9] is T4, CDH6-Y575A. Description: ELISA on coated CDH6-Y575A, O.D. This is another data set of the same source.
Assay [10] deals with T3, CDH6 wt. Description: ELISA on coated CDH6-wt, O.D. The source holds these as a separate data set.
The target in assay [11] is T5, CDH6-D574A. The assay is described as follows: ELISA on coated CDH6-D574A, O.D. This is another data set of the same source.
In assay [12] the target is T2, CDH6-N573A. Description: ELISA on coated CDH6-N573A, O.D. This is another data set of the same source.

Residue numbers refer to the chain shown, from its start. Like-named read-outs stand apart in the source and are kept apart here.

Take non-binding control ADC (antibody): the figures for the Geom. Mean Fluorescence in assay [1] and in assay [2] were 56.5 and 60.4, respectively.

Regarding human isotype control IgG (antibody), the EC50 in assay [3] amounted to 0.545 µM; in [4], 0.3 µM. Besides, the figures for the Geom. Mean Fluorescence in [1] and in [2] were 54.2 and 57.9, respectively.

B1: NOV0720 (antibody, human IgG1, lambda, V domains shown)
VH: QVQLQQSGPGLVKPSQTLSLTCAISGDSVSSNSAGWNWIRQSPSRGLEWLGRIYYRSKWYNDYAVSVKSRITINPDTSKNQFSLQLNSVTPEDTAVYYCAREKYTVSFYDFFDYWGQGTLVTVSS
VL: DIELTQPPSVSVSPGQTASITCSGDNIGSMTAHWYQQKPGQAPVLVIYDKNERPSGIPERFSGSNSGNTATLTISGTQAEDEADYYCQSWDDSYNSVVFGGGTKLTVLG
With B1, the EC50 in assay [5] came out at 6.74 µM; in [6], 7.2 µM; in assay [7] it was 7.58 µM; in assay [8], 7.11 µM.

B2: NOV0710 (antibody, human IgG1, kappa, V domains shown)
VH: QVQLLESGGGLVQPGGSLRLSCAASGFTFSSYAMSWVRQAPGKGLEWVSVIRSSGSSTYYADSVKGRFTISRDNSKNTLYLQMNSLRAEDTAVYYCARGGGYFDYWGQGTLVTVSS
VL: DIQMTQSPSSLSASVGDRVTITCRASQSISLWLNWYQQKPGKAPKLLIYAASTLQSGVPSRFSGSGSGTDFTLTISSLQPEDFATYYCQQYYTSPYTFGQGTKVEIKR
For the molecule B2, the EC50 in assay [9] stood at 0.287 µM; in [10], 0.2 µM; in assay [11], 151 µM; in [12] it was 459 µM.

One may read the EC50 as the concentration at which the effect is half-maximal. A low value points to higher potency in that assay.

The values are drawn from US20160046711A1 (Novartis, published 2016).
